Laboratory results reported in the supplement of paper PMC12764529.
± gives the half width of the 95% confidence interval.

Legend:
[1] = folding stability dG unfold (combined trypsin and chymotrypsin); higher = more stable
Summary of the method: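 Mini-proteins designed to be under 80 residues and free of cysteine were carried in a PA-tagged cDNA display construct and digested with trypsin and with chymotrypsin. Each protease was applied at 11 threefold-diluted concentrations, alongside a no-protease condition, before sequencing. K50 came from Bayesian fitting of the sequencing counts, and unfolding free energy was obtained by comparing it with a sequence-predicted unfolded-state K50 and a shared folded-state K50, for each protease separately or for both together. Designs were retained only if their AlphaFold2 dimer inter-PAE exceeded 15.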

[2] = folding stability dG unfold from chymotrypsin proteolysis; higher = more stable
Method: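 Folding stability of de novo designed mini-proteins (<80 aa, no Cys; designed by TrROS, TrMRF, ProteinMPNN and the joint model) was measured by cDNA display proteolysis with trypsin and chymotrypsin. Each protease was used at 11 concentrations in a threefold dilution series plus a no-protease condition. K50 was inferred by Bayesian fitting of sequencing counts, and dG unfold was derived against a sequence-predicted unfolded-state K50 (Tsuboyama et al. method). Sequences shown include variable-length N-terminal GS-type padding (SAGGSAGG...) inside a display construct carrying a PA tag. Rows were kept only if the AF2 dimer inter-PAE was >15, to exclude likely homo-oligomers.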

| Sequence | folding stability dG unfold [1] | folding stability dG unfold [2] |
| --- | --- | --- |
| SAGGSAGGSAPLVLVAPGDAPVTVYPDPETGTYVAVFPDGSVLVAPVVGDVVPVVLLPPGLASAGGSAGGSA [r18_405_TrMRF] | -0.31 ± 0.23 kcal/mol | 0.677 ± 0.19 kcal/mol |
| SAGGSAGGSAPPIPIQIKIERPDPDGEKRERKIPVWIPPNNIDEIKDEAEEEGWRVKEVTISAGGSAGGSAG [r3_453_TrROS] | -0.477 ± 0.18 kcal/mol | 0.29 ± 0.05 kcal/mol |
| SAGGSAGGSARIDFPAIRRLLGSEAPAEDVVEAVEVIAKELAEELNLPDVEVDPRVVAPDELESAGGSAGGS [r12_666_TrMRF] | 0.102 ± 0.22 kcal/mol | 0.638 ± 0.068 kcal/mol |
| SAGGSAGGSASVGLLSVSTTPSGPGTTVTATTALPDGTVRTETRTEAGDGTATATTVTPLAASAGGSAGGSA [r18_79_JUSTAS] | -0.295 ± 0.15 kcal/mol | 0.271 ± 0.069 kcal/mol |
| SAGGSAGGSATLTVEVLEEVVEPVPDPSLTPVRLLVRDPANGELREAVVIRDPRRGALRLESAGGSAGGSAG [r3_1_JUSTAS] | -0.488 ± 0.22 kcal/mol | 0.0495 ± 0.22 kcal/mol |
| SAGGSAGGSEGFVLRVRRYRRRPDDRVRVPVSEAELEVLPELADAVARALREASPEVEVELRPSAGGSAGGS [r12_342_TrMRF] | < -1 kcal/mol | 0.0982 ± 0.27 kcal/mol |
| SAGGSAGGSELRVLDARPTPDGLVVNLVAPDRLLVTRVDTGADGSQSVSSVVLDAPESTEFDLSAGGSAGGS [r12_981_TrMRF] | < -1 kcal/mol | -0.918 ± 0.36 kcal/mol |
| SAGGSAGGSGGMMVTITLPPGVPPSVVRAALEPLGVRVEVRPVPPVVPFRYPEPGELVFSPLGSAGGSAGGS [r12_80_JUSTAS] | < -1 kcal/mol | 0.373 ± 0.17 kcal/mol |
| SAGGSAGGSGGMRVIRTKLEETEFFEETGESRTFEGLVIVEKEIYLPPYPRYPVFRFDEEKEASAGGSAGGS [r12_140_JUSTAS] | -0.526 ± 0.42 kcal/mol | -0.379 ± 0.41 kcal/mol |
| SAGGSAGGSGMVTVKRTVPPGNVEEAVNALTPPNLTITDVKVTELPDSVEVTVTVEDPFPGLVSAGGSAGGS [r12_445_JUSTAS] | 0.0193 ± 0.12 kcal/mol | 0.587 ± 0.034 kcal/mol |
| SAGGSAGGSGNPTPPAEPTVTLSTSDWNEVKERVEKAGLEYETFPGEGKVTLPASDFEKIKEESAGGSAGGS [r12_325_JUSTAS] | -0.00313 ± 0.14 kcal/mol | 0.356 ± 0.049 kcal/mol |
| SAGGSAGGSGSSVERSPSGEVVTTTPTAGGTLRTVHDPSGTRTLTDVASGKVLATYTPAVPVASAGGSAGGS [r12_235_JUSTAS] | < -1 kcal/mol | -0.638 ± 0.31 kcal/mol |
| SAGGSAGGSIPPGEEVPLRIKIWNPDNGKPRNEIPITMWVGDAEEIAEEFASTFPGYRVEIDPSAGGSAGGS [r12_21_TrROS] | 0.102 ± 0.33 kcal/mol | 0.717 ± 0.23 kcal/mol |
| SAGGSAGGSMIVVPLERELDPSEPGLTKEEVKAILEAKGLDVVDIKVSTDPAKGLTRAVAKVKSAGGSAGGS [r12_1052_JUSTAS] | < -1 kcal/mol | -0.851 ± 0.35 kcal/mol |
| SAGGSAGGSMLKVRIKIEIDGKTLEVEIEVPPGTTIEELAEALKKLFPGKEVKIVSVEVYELPSAGGSAGGS [r12_427_TrROS_Hall] | 4.47 ± 0.25 kcal/mol | 4.23 ± 0.14 kcal/mol |
| SAGGSAGGSMPVTVTVTTPDGTTQTLTADAPPAQTFTVTVTGPDGDPRPVRVTVHGTTVTVEGSAGGSAGGS [r12_784_TrMRF] | < -1 kcal/mol | 0.227 ± 0.22 kcal/mol |

| Sequence | folding stability dG unfold [1] | folding stability dG unfold [2] |
| --- | --- | --- |
| SAGGSAGGSMTETVEKTMPSNGATAEITKLPDGSIKVTIKGSNPVIETFPADEPLVIKPGLEGSAGGSAGGS [r12_1003_JUSTAS] | 0.263 ± 0.18 kcal/mol | 0.621 ± 0.095 kcal/mol |
| SAGGSAGGSMVVTERSVRPVPRLVRTSDPSTGSSSVHLDPGAVETVRVIEEPPTPELLANTGASAGGSAGGS [r20_172_JUSTAS] | < -1 kcal/mol | -1.36 ± 0.33 kcal/mol |
| SAGGSAGGSSKTVPLKSEEEVKAVLEKLPPDAEYTVTDSEGKSKKVSPDEISFTPDPLTITVSSAGGSAGGS [r12_907_JUSTAS] | -0.131 ± 0.092 kcal/mol | 0.362 ± 0.043 kcal/mol |
| SAGGSAGGSTLVFAPDDTLYLRIYLPETGGWRYIEVPAGQADSVARPLGAVRLEAYRRDEPVPSAGGSAGGS [r12_294_TrMRF] | 0.123 ± 0.15 kcal/mol | 0.83 ± 0.23 kcal/mol |
| SAGGSAGGSTVEELKKKAKELGLEVTVEKNKKDKKKITITVSEEAKKKLKEIAKEENIKVEIKSAGGSAGGS [r12_74_TrROS_Hall] | -0.473 ± 0.47 kcal/mol | 0.0632 ± 0.051 kcal/mol |
| SAGGSAGGSVIPFPGNSRIYVTEVREDGVKIKFPDIGTEITVPANVPINLVGNPTIGPDGTPYSAGGSAGGS [r20_105_TrMRF] | < -1 kcal/mol | -0.946 ± 0.53 kcal/mol |
| SAGGSAGGSVTAVPIEELIPLPTPRTLKVTGTVYVLPGGEVVTERTLTEPSPGTVTVETKTIPLSAGGSAGG [r6_727_JUSTAS] | < -1 kcal/mol | -0.517 ± 0.4 kcal/mol |
| SAGGSAGGWFWVIKAEYPKNGRERSIQIPNEATDEDDVKEEVKELAEDLGAPIKKVEIEWIDPESAGGSAGG [r6_718_TrROS] | < -1 kcal/mol | -0.474 ± 0.34 kcal/mol |
| SAGGSAGGWVEQTYMVPPDMPVNMIKNKLEPWGVEIDDVEPFPNGNSIVTITIPPEFLKDPDEKSAGGSAGG [r6_470_TrROS] | -0.262 ± 0.51 kcal/mol | 0.574 ± 0.22 kcal/mol |
| SAGGSAGMKNVVKPVAPGTSMTLKVTKPDGTPRTLTFPPNYTATVKTLPEGGKDEIISLEPVPPELSAGGSA [r15_82_JUSTAS] | < -1 kcal/mol | -0.82 ± 0.53 kcal/mol |
| SAGGSAGPMVKTTEFSAVYTGPGGVSRGPVAVTVEIPPGDPSNPVLTVTLPDGTPRTLAAGEVEAASAGGSA [r15_954_JUSTAS] | -0.757 ± 0.27 kcal/mol | -0.672 ± 0.36 kcal/mol |
| SAGGSAGSHNQSPDGITLDAPLSSEEEIEALVAEVKAAAPPTYTVTVERTRSPSTLSVDVIVTAAPSAGGSA [r15_80_JUSTAS] | -0.895 ± 0.97 kcal/mol | -0.579 ± 0.19 kcal/mol |
| SAGGSAIKPGDPYVRIKFRMGNEPMEFTIPAEKIKKITVDDPDDQVTIRFPGNGRKFPMKLEEVEISAGGSA [r15_495_TrROS] | -0.41 ± 0.25 kcal/mol | -0.316 ± 0.33 kcal/mol |
| SAGGSALTIKVKDPEDIKDLEIQVYLPDGRPMLMKIEVQRDEGPPYVKIKAENPGNGKKRKETFPFSAGGSA [r15_1006_TrROS] | -0.243 ± 0.62 kcal/mol | 0.0249 ± 0.53 kcal/mol |
| SAGGSAMFTSSTSTDPATGLRRTTTLFPDSSAAVTTTVAVPPVPPLSPEAVAAGEAAAAAGRPPAVSAGGSA [r15_631_JUSTAS] | < -1 kcal/mol | 0.59 ± 0.17 kcal/mol |
| SAGGSAMKIEVEEFPVLVPPELIPELKDKPGAIVKVKKVKFYAEAPEEEREKLKKELEEKTGIKTESAGGSA [r15_347_TrMRF] | < -1 kcal/mol | 0.0727 ± 0.61 kcal/mol |
